Measurements as given in the nanobody polyreactivity screen of Harvey et al. (2022).

Test: yeast display, Sf9 membrane polyspecificity reagent, FACS + sequencing; frameworks hold sequencing errors
Procedure, shortened: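 Nanobodies came from a synthetic yeast display library in Saccharomyces cerevisiae BJ5465, induced with galactose for 36–48 hours and stained for 1 hour at 4 °C with 10% biotinylated, detergent-solubilized Sf9 membrane reagent. Cells were enriched on streptavidin microbeads and then FACS-sorted, with low and high (top ~1%) gates set on anti-HA fluorescence for expression and streptavidin fluorescence for reagent binding. Each polyreactivity label reflects the gate a clone came from. Genes were amplified by colony PCR, sequenced by MiSeq 2 × 250 and filtered by CDR length.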

| Sequence | polyreactivity (PSR sort gate) |
| --- | --- |
| QVQLVESGGRLVQAGGSLRLSWAASGRILWSNRMGWYRQAPGKERELVAAITYSGDTTYYADSVKGRFTISRDNEKNTVYLQMNSLKPDDTAVYYCAVEDAGQGGDYWGQGSQVTVSS | low polyreactivity |
| QVQLVESGGRLVQAGGSLSLSCAASGFIFWSYAMGWYRPAPGKERELVAAISARGGSTYYADSVKGRFTISRDNAKNTVYLQMTSLKPEDTAVYYCATYPTYEYDYWGQGTQVTLSS | high polyreactivity |
| QVQLVESGGRLVQAGGSLSLSCAASGRTFGGYNMGWYRQAPGKERELVAAINWSGTTYYADSVKGRFTISRDNAKNTVYLQMNSLKPVDTAVYYCAASLVSYYGLARDSVDYWGQGTQVTVSS | low polyreactivity |
| QVQLVESGGRLVQAGRSLRLSCAASGFTFYDYAMVWYRQEPGKERELVARINGGGGTNYADSVKGRFTNSRDNAKNTVYLQMNSLKPEDTAVYYCAAEFGSRPPYDYWGQGTQVTVSS | low polyreactivity |
| QVQLVESGGRLVQAGRSLRLSCAASGSTFYLYAMGWYRQAPGKERELVASISIGGSTNYADSVKGRFTISRDNAKNTVYLQMNSLKPEDTAVYYCNADYYYVRTVRRLGYWGQGSQVTVSS | low polyreactivity |
| QVQLVESGGRLVQARGSLRLSCAASGRIFAYYTLGWYRQAPGKERELVAVISGSGGRTYYADSVKGRFTISRDNAKNTVYLQMNSRKPDDTAVYYCAAYYQGIKYDYWGQGTQVTVSS | high polyreactivity |
| QVQLVESGGRLVQAVGSLRLRCAPSGNTFPVYAMGWYRQASGKERELVATITSGGSTNYADSVKGRFTISRDNAKNTVYLQMNSLKPEDTAVYYCARRAVYSKRRYDYWGQGTQVTVSS | low polyreactivity |
| QVQLVESGGRLVQEGGSLRLSCAASGRTFSKYAMGWYRQAPGKERELVAAITWRGGRTYYADSVNGRFTISRDNAKNTVYLQMNSLKPEDTAVYYCAADPSIYRIYQYTNRYDYWGQGTQVTVSS | high polyreactivity |
| QVQLVESGGRLVQEGGSLRLSCAASGRTLYDYAMGWYRQAPGKERELVAGITWRGGSTSYAASVKGRFTISRDNAKNTVYLEMNSLKPEDTAVYDCATDGDERMDYWGQGTQVTVAS | low polyreactivity |
| QVQLVESGGRSVQAGGSRRLSCAASGFSFHYYAMGWYRAAPATERELVAAITSRGTATYYADSVKGRFTISRDTAKITVDLLMNCLKPEDTAVYYCAKASTERMGSWGQGTQVTVSS | high polyreactivity |
| QVQLVESGGRVDQAGGSLRLRCAASGRTFPVYAMGWYRQAPGKERELVAAITRCDDSTYYADSVKGRFTISRDNAKNTVYFEMNSLKPEDTAVYYCARSSRESYEYDYWGQGTQVTVSS | low polyreactivity |
| QVQLVESGGSLVQAGGSLLLSSAASLRTFGVNDIGWYRKAPGKERNFVAAISYSDTSTYYADSVKVSFTISRDNAKNTVYLQMNSLKPEDTAVYYCAVETYLQYDNGYGHDYWGQGTQVTVSS | low polyreactivity |
| QVQLVESGGVFVQAGGTLRLSCAASGITLNGYVMGWYRQAPGKEREFVAVITTRGGSTYYADSVKGRFTISRDNAKNTVYLQMNSLNPEDTAVYYCAARYVREYNYWGQGTQVTVSS | high polyreactivity |
| QVQLVESGGVLDPAGGSLRLSCAASGSTFISNAMRWYRQAPGKERELVATITYSDATTYYADSVKGRFTISRDNAKNTVYLQMNSLKPEDTAVYYCNTRFFRPLWGYNYWGQGTQVTVSS | low polyreactivity |
| QVQLVESGGVLLQAGGSLRLSCAASGRIFTLYDRGWYRQAPGKEREMDAAISNSAGSTYYADSVKGRFTISRDNAKNTVYLQMNSLKPEDTAGYYCARSYSYWGYRSVYYWGQGTQVTVSS | high polyreactivity |
| QVQLVESGGVLVEAGGSLRLSCASSGRIFTYYSMGWYRQAPGKERELVAAISRSGRTYYADSVKGRFTISRDNAKNTVYLQMNSLKPEDSAVYFCAAEYYYSWFEYWGQGTQVTVSS | high polyreactivity |
| QVQLVESGGVLVQAGASLRLSCAASVFTFRRYAMGWYRQAPGKERELVAAITRDDSTNYADSVKGRFTISRDNAKNTVYLQMNSLKPEDTAVYYCAARLWYPYYYWGQGTQVTVSS | high polyreactivity |
| QVQLVESGGVLVQAGGILRLSCAESGSIFSYYAMVWYRQAPWKERELVASISWNGTSTYYADSVKGRFTISRDNSKNTVYLQMNSLKPEDTAVYYCNVRFNYRGTYDYWGQGTQVTVSS | low polyreactivity |
| QVQLVESGGVLVQAGGSLRISCAASGSTFYSYDMGWYRQAPGKERELVAAISSSSGSTYYADSVKARFTISRDNAKNTVYLQMNSLKPEDTAVYYCKRGRRYSHKYDYWGQVTQVTVSS | high polyreactivity |
| QVQLVESGGVLVQAGGSLRLSCAAAGRIFIWNAMGWYRQAPGKERELDAAISSGGTYYADSVKGRFTISRDNAKNTVYLQMNSLKPEDTAVYYCAADWEVYVSEFVYWGQGTQVTVSS | low polyreactivity |
